Results taken from patent US8796209B2, “Compositions and methods related to anti-FGF agents” (The Regents of the University of California, priority 2005, dated 2014).
One block for each molecule: values may come before it.

Assays:
[1] = tested on: ERK1/2; assay: MAP kinase (ERK1/2) activation, western blot; format: cell-based, mouse; conditions: 5 μg/ml heparin
Protocol: Serum starved Balb3T3 cells were stimulated with wild-type and mutant FGF-1s (5 ng/ml) in the presence or absence of 5 μg/ml heparin for 10 min at 37° C. Cell lysates were analyzed by western blotting with anti-phospho ERK1/2 (anti phospho-ERK). Total amount of ERK1/2 in each lane was determined by blotting with anti-ERK1/2. Controls contain medium alone (none) or medium containing 10% fetal calf serum (FCS).
Balb3T3 cells were grown to confluence and serum starved in DMEM supplemented with 0.4% fetal calf serum for 24 h, and stimulated with wild type and mutant FGF-1 (5 ng/ml) in the presence or absence of 5 μg/ml heparin for 10 min at 37° C. Cells were washed twice with ice-cold PBS and lysed with the lysis buffer (20 mM Tris-HCI pH 8.0, 120 mM NaCl, 5 mM EDTA, 0.5% Triton-X100, 1 mM PMSF, 1 mM DTT, 10 mM NaF, 1 mM Na3VO4, 10 μg/ml aprotinin). Cell lysates were separated on 4-12% NuPAGE Bis-Tris Gel (invitrogen). Proteins were then transferred to PVDF membranes (Milli-pore), probed with antibodies, and bound antibodies were detected by HRP-conjugated anti-mouse IgG and chemiluminescence HRP substrate (Pierce). The antibodies used were anti-phospho-ERK1/2, anti-ERK1/2 (Cell Signaling Technology).

[2] = biological target: T1, integrin αvβ3 (Homo sapiens, UniProt P05106+P06756); assay: Soluble integrin binding assay (ELISA-type), soluble αvβ3 on immobilized FGF; conditions: coated at 10 μg/ml; soluble αvβ3 5 μg/ml, 1 mM MnCl2
T1 construct: using the soluble αv and β3 expression constructs provided by Tim Springer; made in house; host or cells: CHO K1
T1 sequence (P06756 31-992 limits assumed): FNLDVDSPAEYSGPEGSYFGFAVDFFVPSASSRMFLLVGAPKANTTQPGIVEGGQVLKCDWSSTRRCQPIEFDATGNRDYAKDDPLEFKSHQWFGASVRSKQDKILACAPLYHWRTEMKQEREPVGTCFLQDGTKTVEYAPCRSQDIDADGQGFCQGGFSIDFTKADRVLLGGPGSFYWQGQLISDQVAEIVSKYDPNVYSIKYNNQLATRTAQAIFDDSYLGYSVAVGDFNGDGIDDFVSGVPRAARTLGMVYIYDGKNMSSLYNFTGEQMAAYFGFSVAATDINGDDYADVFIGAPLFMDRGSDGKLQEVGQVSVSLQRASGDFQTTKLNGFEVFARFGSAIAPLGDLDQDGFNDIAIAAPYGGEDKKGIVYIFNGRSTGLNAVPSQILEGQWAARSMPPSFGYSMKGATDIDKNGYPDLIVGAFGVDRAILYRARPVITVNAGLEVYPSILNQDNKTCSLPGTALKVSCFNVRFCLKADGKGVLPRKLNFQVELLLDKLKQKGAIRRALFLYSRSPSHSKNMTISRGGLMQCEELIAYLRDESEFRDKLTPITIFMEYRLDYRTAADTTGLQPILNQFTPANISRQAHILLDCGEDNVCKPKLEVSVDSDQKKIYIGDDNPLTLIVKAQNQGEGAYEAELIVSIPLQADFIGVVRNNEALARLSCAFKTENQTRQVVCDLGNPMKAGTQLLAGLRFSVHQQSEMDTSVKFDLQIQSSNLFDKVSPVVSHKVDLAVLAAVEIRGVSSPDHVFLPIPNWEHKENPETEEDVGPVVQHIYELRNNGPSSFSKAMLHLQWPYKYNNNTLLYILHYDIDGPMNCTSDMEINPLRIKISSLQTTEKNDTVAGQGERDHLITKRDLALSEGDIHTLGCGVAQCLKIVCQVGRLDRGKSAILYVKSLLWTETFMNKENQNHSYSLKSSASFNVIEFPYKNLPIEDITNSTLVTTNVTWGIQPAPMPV
T1 sequence (P05106 27-718 limits assumed): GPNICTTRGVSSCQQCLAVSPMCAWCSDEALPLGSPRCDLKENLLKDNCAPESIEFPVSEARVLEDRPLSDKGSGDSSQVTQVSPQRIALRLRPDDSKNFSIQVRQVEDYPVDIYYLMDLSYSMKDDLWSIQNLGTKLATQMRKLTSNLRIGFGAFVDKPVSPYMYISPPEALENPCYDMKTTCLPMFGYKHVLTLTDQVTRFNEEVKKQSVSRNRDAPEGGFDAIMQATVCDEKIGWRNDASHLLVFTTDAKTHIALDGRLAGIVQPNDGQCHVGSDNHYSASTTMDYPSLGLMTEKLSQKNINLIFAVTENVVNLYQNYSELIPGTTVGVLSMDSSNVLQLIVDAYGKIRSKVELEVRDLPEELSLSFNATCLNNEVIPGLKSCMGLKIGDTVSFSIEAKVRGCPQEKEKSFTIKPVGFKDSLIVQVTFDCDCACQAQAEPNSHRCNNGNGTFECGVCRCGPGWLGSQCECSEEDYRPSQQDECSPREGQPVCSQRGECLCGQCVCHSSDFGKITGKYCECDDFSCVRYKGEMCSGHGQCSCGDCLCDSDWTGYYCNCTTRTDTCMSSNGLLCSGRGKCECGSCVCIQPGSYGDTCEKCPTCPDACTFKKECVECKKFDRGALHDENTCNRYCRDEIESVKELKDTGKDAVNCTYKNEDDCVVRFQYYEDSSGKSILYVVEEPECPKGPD
Protocol: Wells of 96-well microtiter plates were coated with 10 μg/ml FGF-1 or FGF-2 and remaining protein binding sites were blocked with 1 mg/ml BSA. Recombinant soluble αvβ3 (50 μl/well at 5 μg/ml in Hepes-Tyrode buffer supplemented with 1 mM MnCl2) was added to wells and incubated for 1 h at room temperature. Soluble αvβ3 was incubated with 10 μg/ml 7E3 (white bar) or mouse IgG (black bar) for 10 min on ice prior to adding to the wells. BSA (circle) was used as a negative control. Data is shown as means+/−SD of triplicate experiments.
FGF-1 (10 μg/m) was heat-treated at indicated temperature for 10 min prior to immobilization. Binding of soluble αvβ3 was determined as described in FIG. 1. Data is shown as percent binding+/−SD of triplicate experiments.
Amino acid residues in the integrin-binding site or in the FGFR-binding site were mutated individually or in groups. Wild-type (diamond), R50E (open square), N33A (closed square), 4xE (circle), 3xA (triangle) were coated to a plastic plate various concentration as indicated and the binding of soluble αvβ3 was determined as described in FIG. 2. BSA (cross) was used as a negative control. […] “4xE” represents the K127E/K128E/K133E/R134E mutant. “3xA” represents the E102A/Y109A/Q110A mutant.
Binding assays were performed as previously described (Takagi et al., 2001). Native or heat-denatured FGF-1 in 0.1 M carbonate buffer, pH 9.4, were incubated in a polystyrene 96-well non-tissue culture plates surface overnight at 4° C. Unbound FGF-1 was removed, and 200 μl of 0.1% bovine serum albumin in PBS was added and incubated for 60 min at room temperature. The wells were washed with PBS and soluble integrin αvβ3 in 50 μl in Hepes-Tyrode buffer supplemented with 1 mM Mn^2+ were added to the wells and incubated at room temperature for 60 min. After non-bound soluble integrin were removed by rinsing the wells with the same buffer. Horseradish peroxidase (HRP) conjugated anti His-tag mouse IgG was added to well and incubated 60 min. Non-bound antibodies were removed by rinsing the wells with the same buffer, bound integrins were quantified by measuring the absorbance of 450 nm developed from adding the substrate (3,3′,5,5′-tetramethylbenzidine) of HRP unbound protein was aspirated, and the wells were washed with PBS three times.

[3] = biological target: T2, FGF-1-αvβ3 interaction (Homo sapiens, UniProt P05106+P06756); assay: Inhibition of FGF-1-αvβ3 interaction by γC; format: binding; conditions: immobilized FGF-1 10 μg/ml, increasing concentrations of soluble γC
T2 construct: using the soluble αv and β3 expression constructs provided by Tim Springer; made in house; host or cells: CHO K1 (integrin); E. coli BL21 (DE3) (FGF-1)
T2 sequence (P06756 31-992 limits assumed): as the sequence (P06756 31-992 limits assumed) above
T2 sequence (P05106 27-718 limits assumed): as the sequence (P05106 27-718 limits assumed) above
Protocol: FGF-1 (10 μg/m) was immobilized to the plastic plate. Soluble αvβ3 was added to the wells together with increasing concentrations of soluble γC. Binding was determined as described in A. Data is shown as percent binding+/−SD of triplicate experiments with no addition of γC as 100.
FGF-1 (10 μg/ml) was immobilized to wells of 96-well plates. Soluble αvβ3 integrin was added to the wells with various concentration of γC. Bound integrin was detected by using HRP-conjugated anti-6His antibodies and its substrate as described above.

Molecule: heparin [reference compound]
effect of heparin on FGF-1-induced ERK1/2 activation [1]: did not enhance

binding of soluble αvβ3 to the immobilized protein [2]: bound
Molecule: FGF-2: basic FGF, used as a positive control for αvβ3 binding

blocking of FGF-1-αvβ3 interaction [3]: effectively block
B1: γC: globular carboxyl-terminal domain of the fibrinogen γ-chain, a known ligand for αvβ3 (protein)
chain: KDCQDIANKGAKQSGLYFIKPLKANQQFLVYCEIDGSGNGWTVFQKRLDGSVDFKKNWIQYKEGFGHLSPTGTTEFWLGNEKIHLISTQSAIPYALRVELEDWNGRTSTADYAMFKVGPEADKYRLTYAYFAGGDAGDAFDGFDFGDDPSDKFFTSHNGMQFSTWDNDNDKFEGNCAEQDGSGWWMNKCHAGHLNGVYYQGGTYSKASTPNGYDNGIIWATWKTRWYSMKKTTMKIIPFNRLTIGEGQQHHLGGAKQAGDV
